Measurements as given in patent publication US20200199241A1 (Chugai, published 2020).
Changes are numbered by the printed parent chain. Names may count otherwise.

T1: human FcγRIIa(R) (human, UniProt P12318 36-217)
T1 construct: also called FcgRIIaR; FcγRIIa type R
T1 chain: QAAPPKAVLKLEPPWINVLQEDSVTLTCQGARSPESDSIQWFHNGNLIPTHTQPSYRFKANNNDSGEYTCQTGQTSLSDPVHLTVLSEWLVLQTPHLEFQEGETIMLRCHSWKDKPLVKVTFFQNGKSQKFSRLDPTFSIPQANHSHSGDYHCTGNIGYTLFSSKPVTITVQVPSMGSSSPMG

T2: human FcγRIIa(H) (human, UniProt P12318 36-217)
T2 construct: also called FcgRIIaH; FcγRIIa type H
T2 sequence: T1 chain with R133H

T3: human FcγRIIb (human, UniProt P31994 43-217, limits assumed)
T3 construct: also called FcgRIIb
T3 sequence: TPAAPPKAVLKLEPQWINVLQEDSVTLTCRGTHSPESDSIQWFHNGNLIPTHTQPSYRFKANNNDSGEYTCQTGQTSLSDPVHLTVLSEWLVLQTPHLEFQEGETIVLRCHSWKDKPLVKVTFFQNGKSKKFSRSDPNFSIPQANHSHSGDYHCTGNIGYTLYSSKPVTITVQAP

B1: GpH7-B3 variant G236N/GpL16-k0 (antibody, human IgG1)
heavy: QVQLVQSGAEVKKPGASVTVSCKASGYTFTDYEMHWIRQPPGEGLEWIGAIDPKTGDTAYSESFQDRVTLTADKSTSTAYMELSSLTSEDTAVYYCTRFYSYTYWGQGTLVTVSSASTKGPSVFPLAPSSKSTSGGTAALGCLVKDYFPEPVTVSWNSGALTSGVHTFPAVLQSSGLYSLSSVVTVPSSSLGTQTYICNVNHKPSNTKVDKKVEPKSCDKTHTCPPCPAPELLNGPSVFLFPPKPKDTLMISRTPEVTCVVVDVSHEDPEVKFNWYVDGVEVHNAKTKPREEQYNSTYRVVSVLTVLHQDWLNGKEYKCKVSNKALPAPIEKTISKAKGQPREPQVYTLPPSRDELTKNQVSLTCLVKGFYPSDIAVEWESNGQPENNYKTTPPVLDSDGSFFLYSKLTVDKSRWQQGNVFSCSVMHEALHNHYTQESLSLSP
light: DIVMTQSPLSLPVTPGEPASISCQASESLVHSNRNTYLHWYLQKPGQSPQLLIYKVSNRFSGVPDRFSGSGSGTDFTLKISRVEAEDVGVYYCSQNTHVPPTFGQGTKVEIE
notes: copies: 2 + 2
B2: GpH7-B3 variant L234A/GpL16-k0 (antibody, human IgG1)
heavy: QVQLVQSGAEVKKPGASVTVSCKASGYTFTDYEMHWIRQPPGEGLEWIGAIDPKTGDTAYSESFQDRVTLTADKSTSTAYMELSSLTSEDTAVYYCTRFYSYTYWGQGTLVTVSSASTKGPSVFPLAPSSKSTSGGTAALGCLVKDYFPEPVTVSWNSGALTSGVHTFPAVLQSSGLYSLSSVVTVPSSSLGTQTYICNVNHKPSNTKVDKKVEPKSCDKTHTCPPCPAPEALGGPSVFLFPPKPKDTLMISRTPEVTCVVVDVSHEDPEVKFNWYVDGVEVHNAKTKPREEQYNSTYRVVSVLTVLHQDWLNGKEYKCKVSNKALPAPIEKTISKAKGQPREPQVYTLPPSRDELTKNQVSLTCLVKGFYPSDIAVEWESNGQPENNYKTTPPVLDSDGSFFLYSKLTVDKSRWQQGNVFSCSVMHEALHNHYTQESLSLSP
light: B1 light
notes: copies: 2 + 2
B3: GpH7-B3 variant G237N/GpL16-k0 (antibody, human IgG1)
heavy: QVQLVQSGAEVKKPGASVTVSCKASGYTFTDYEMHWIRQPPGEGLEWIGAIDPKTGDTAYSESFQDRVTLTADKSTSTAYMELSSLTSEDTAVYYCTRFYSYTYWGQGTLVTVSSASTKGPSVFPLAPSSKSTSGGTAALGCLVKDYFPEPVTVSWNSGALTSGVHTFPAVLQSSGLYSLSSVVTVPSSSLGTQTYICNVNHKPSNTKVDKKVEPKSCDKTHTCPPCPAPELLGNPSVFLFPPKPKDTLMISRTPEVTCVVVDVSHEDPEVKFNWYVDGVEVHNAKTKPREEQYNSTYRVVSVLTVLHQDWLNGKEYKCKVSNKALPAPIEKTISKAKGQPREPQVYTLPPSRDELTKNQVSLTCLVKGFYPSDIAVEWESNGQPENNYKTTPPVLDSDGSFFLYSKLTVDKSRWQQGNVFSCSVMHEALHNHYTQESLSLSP
light: B1 light
notes: copies: 2 + 2
B4: GpH7-B3 variant G237R/GpL16-k0 (antibody, human IgG1)
heavy: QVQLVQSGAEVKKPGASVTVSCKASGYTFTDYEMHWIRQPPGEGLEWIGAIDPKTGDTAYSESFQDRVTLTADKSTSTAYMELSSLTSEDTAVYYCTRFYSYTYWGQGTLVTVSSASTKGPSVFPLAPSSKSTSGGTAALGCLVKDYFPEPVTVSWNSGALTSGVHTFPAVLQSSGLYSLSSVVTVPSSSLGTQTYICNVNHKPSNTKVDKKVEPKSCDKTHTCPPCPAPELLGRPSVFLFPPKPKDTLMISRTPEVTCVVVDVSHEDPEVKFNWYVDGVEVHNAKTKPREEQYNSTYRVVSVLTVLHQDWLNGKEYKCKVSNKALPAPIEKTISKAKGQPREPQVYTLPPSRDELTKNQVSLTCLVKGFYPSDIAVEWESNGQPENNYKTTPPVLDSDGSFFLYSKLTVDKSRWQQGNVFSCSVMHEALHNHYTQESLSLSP
light: B1 light
notes: copies: 2 + 2
B5: GpH7-B3 variant G237I/GpL16-k0 (antibody, human IgG1)
heavy: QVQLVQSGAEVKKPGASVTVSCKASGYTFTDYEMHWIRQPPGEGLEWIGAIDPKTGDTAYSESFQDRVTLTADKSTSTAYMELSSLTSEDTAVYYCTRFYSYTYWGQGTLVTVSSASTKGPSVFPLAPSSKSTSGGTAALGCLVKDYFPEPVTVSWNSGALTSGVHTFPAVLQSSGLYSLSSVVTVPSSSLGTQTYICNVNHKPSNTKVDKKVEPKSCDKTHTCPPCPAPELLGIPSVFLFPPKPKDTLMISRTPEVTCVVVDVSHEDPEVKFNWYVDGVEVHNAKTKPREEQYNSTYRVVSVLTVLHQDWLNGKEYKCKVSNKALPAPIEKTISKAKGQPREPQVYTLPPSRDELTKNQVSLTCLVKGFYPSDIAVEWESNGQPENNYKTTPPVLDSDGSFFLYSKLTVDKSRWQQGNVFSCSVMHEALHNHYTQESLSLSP
light: B1 light
notes: copies: 2 + 2
B6: GpH7-B3 variant G237M/GpL16-k0 (antibody, human IgG1)
heavy: not shown
light: B1 light
notes: copies: 2 + 2
B7: GpH7-B3 variant G237V/GpL16-k0 (antibody, human IgG1)
heavy: not shown
light: B1 light
notes: copies: 2 + 2
B8: GpH7-B3 variant L234D/GpL16-k0 (antibody, human IgG1)
heavy: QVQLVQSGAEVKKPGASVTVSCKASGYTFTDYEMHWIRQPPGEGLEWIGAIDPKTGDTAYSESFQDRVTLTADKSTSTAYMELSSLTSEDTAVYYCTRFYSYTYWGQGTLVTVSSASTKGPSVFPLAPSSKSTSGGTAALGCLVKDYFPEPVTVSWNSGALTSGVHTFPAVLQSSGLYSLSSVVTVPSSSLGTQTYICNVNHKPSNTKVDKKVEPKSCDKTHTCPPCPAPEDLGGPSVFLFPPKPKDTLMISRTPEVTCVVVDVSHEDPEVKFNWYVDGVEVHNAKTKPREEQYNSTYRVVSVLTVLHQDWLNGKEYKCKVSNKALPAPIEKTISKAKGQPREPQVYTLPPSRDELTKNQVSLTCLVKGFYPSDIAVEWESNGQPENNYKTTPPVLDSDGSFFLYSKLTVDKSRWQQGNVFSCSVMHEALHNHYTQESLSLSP
light: B1 light
notes: copies: 2 + 2
B9: GpH7-B3 variant L234K/GpL16-k0 (antibody, human IgG1)
heavy: not shown
light: B1 light
notes: copies: 2 + 2
B10: GpH7-B3 variant L234S/GpL16-k0 (antibody, human IgG1)
heavy: not shown
light: B1 light
notes: copies: 2 + 2
B11: GpH7-B3 variant G237T/GpL16-k0 (antibody, human IgG1)
heavy: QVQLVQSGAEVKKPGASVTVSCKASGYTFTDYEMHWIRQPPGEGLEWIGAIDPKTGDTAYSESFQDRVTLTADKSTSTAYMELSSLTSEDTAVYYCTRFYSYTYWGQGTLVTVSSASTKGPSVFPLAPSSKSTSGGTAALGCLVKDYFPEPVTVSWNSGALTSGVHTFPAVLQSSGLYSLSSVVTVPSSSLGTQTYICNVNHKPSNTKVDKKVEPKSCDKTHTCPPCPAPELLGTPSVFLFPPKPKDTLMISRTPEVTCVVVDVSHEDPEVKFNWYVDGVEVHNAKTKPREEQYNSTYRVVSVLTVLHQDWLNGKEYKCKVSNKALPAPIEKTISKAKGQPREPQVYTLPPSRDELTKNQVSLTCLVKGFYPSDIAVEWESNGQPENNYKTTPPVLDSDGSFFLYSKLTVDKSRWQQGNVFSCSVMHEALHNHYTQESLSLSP
light: B1 light
notes: copies: 2 + 2
B12: GpH7-B3 variant G237S/GpL16-k0 (antibody, human IgG1)
heavy: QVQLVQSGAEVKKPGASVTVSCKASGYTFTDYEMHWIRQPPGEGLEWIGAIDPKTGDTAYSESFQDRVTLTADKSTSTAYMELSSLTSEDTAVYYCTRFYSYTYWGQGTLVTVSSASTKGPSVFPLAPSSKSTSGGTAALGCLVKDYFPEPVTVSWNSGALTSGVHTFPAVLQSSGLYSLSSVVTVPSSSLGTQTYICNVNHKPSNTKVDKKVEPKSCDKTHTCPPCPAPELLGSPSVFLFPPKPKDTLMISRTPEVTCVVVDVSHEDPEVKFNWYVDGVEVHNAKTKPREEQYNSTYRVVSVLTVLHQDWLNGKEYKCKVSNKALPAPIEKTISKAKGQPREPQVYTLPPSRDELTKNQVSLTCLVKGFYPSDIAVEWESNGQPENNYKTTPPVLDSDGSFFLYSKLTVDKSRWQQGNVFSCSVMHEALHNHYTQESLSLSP
light: B1 light
notes: copies: 2 + 2
B13: GpH7-B3 variant G237H/GpL16-k0 (antibody, human IgG1)
heavy: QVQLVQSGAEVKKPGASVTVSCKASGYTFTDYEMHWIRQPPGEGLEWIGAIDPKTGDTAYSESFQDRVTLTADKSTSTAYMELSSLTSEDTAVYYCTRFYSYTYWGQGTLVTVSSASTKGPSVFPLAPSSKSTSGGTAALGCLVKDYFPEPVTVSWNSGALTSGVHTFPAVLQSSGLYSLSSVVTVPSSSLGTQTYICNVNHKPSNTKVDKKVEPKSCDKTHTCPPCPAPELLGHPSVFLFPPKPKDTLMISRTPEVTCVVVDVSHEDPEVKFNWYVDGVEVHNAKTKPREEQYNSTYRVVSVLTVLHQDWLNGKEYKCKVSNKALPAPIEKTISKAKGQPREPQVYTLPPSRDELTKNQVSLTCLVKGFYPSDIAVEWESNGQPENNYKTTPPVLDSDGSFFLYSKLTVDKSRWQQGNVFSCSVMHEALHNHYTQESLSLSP
light: B1 light
notes: copies: 2 + 2
B14: GpH7-B3 variant G236R/GpL16-k0 (antibody, human IgG1)
heavy: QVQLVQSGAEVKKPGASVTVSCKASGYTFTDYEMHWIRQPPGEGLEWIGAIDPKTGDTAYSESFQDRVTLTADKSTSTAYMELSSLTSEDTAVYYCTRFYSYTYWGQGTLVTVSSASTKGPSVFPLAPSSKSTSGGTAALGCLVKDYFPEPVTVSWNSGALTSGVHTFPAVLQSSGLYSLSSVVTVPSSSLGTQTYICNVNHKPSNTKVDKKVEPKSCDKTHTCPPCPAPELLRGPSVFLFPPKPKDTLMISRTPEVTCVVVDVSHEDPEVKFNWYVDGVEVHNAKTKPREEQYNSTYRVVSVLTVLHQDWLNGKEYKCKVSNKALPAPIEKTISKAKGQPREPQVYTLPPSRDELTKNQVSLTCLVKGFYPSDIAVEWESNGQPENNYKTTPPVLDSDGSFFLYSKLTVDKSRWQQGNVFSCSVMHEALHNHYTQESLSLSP
light: B1 light
notes: copies: 2 + 2

Target: T4, human FcγRIa (human, UniProt P12314 16-292, limits assumed)
T4 construct: also called FcgRIa; FcγRI (CD64)
Experiment: SPR (Biacore);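 also: antibody variants captured on sensor chip, Fcγ receptor flowed over at 25 °C, bound receptor normalized to amount of captured antibody, expressed relative to reference antibody set as 100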

T4 sequence (P12314 16-292 limits assumed): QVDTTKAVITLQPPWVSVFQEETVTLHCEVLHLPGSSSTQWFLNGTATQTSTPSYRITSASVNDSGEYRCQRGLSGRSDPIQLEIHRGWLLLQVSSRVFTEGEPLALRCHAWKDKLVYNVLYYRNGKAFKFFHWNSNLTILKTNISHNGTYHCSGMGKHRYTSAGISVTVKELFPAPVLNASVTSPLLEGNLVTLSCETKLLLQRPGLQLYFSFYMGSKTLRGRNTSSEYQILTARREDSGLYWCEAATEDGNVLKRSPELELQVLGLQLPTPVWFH

Row | relative binding activity | Binder
1 | 42 % of GpH7-B3/GpL16-k0 | B1
2 | 79 % of GpH7-B3/GpL16-k0 | B2
3 | 15 % of GpH7-B3/GpL16-k0 | B3
4 | 3 % of GpH7-B3/GpL16-k0 | B4
5 | 6 % of GpH7-B3/GpL16-k0 | B5
6 | 14 % of GpH7-B3/GpL16-k0 | B6
7 | 8 % of GpH7-B3/GpL16-k0 | B7
8 | 31 % of GpH7-B3/GpL16-k0 | B8
9 | 54 % of GpH7-B3/GpL16-k0 | B9
10 | 63 % of GpH7-B3/GpL16-k0 | B10
11 | 27 % of GpH7-B3/GpL16-k0 | B11
12 | 50 % of GpH7-B3/GpL16-k0 | B12
13 | 12 % of GpH7-B3/GpL16-k0 | B13
14 | 6 % of GpH7-B3/GpL16-k0 | B14

Target: T1, human FcγRIIa(R)
Experiment: SPR (Biacore);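 also: antibody variants captured on sensor chip, Fcγ receptor flowed over at 25 °C, bound receptor normalized to amount of captured antibody, expressed relative to reference antibody set as 100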

Row | relative binding activity | Binder
15 | 54 % of GpH7-B3/GpL16-k0 | B1
16 | 26 % of GpH7-B3/GpL16-k0 | B2
17 | 75 % of GpH7-B3/GpL16-k0 | B3
18 | 0 % of GpH7-B3/GpL16-k0 | B4
19 | 69 % of GpH7-B3/GpL16-k0 | B5
20 | 56 % of GpH7-B3/GpL16-k0 | B6
21 | 55 % of GpH7-B3/GpL16-k0 | B7
22 | 51 % of GpH7-B3/GpL16-k0 | B8
23 | -2 % of GpH7-B3/GpL16-k0 | B9
24 | 20 % of GpH7-B3/GpL16-k0 | B10
25 | 13 % of GpH7-B3/GpL16-k0 | B11
26 | 45 % of GpH7-B3/GpL16-k0 | B12
27 | 14 % of GpH7-B3/GpL16-k0 | B13
28 | 0 % of GpH7-B3/GpL16-k0 | B14

Target: T2, human FcγRIIa(H)
Experiment: SPR (Biacore);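 also: antibody variants captured on sensor chip, Fcγ receptor flowed over at 25 °C, bound receptor normalized to amount of captured antibody, expressed relative to reference antibody set as 100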

Row | relative binding activity | Binder
29 | 81 % of GpH7-B3/GpL16-k0 | B1
30 | 25 % of GpH7-B3/GpL16-k0 | B2
31 | 0 % of GpH7-B3/GpL16-k0 | B3
32 | -1 % of GpH7-B3/GpL16-k0 | B4
33 | 6 % of GpH7-B3/GpL16-k0 | B5
34 | 1 % of GpH7-B3/GpL16-k0 | B6
35 | 10 % of GpH7-B3/GpL16-k0 | B7
36 | 18 % of GpH7-B3/GpL16-k0 | B8
37 | 1 % of GpH7-B3/GpL16-k0 | B9
38 | 21 % of GpH7-B3/GpL16-k0 | B10
39 | 2 % of GpH7-B3/GpL16-k0 | B11
40 | 3 % of GpH7-B3/GpL16-k0 | B12
41 | 1 % of GpH7-B3/GpL16-k0 | B13
42 | 3 % of GpH7-B3/GpL16-k0 | B14

Target: T3, human FcγRIIb
Experiment: SPR (Biacore);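 also: antibody variants captured on sensor chip, Fcγ receptor flowed over at 25 °C, bound receptor normalized to amount of captured antibody, expressed relative to reference antibody set as 100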

Row | relative binding activity | Binder
43 | 75 % of GpH7-B3/GpL16-k0 | B1
44 | 24 % of GpH7-B3/GpL16-k0 | B2
45 | 65 % of GpH7-B3/GpL16-k0 | B3
46 | -1 % of GpH7-B3/GpL16-k0 | B4
47 | 29 % of GpH7-B3/GpL16-k0 | B5
48 | 36 % of GpH7-B3/GpL16-k0 | B6
49 | 12 % of GpH7-B3/GpL16-k0 | B7
50 | 77 % of GpH7-B3/GpL16-k0 | B8
51 | -3 % of GpH7-B3/GpL16-k0 | B9
52 | 19 % of GpH7-B3/GpL16-k0 | B10
53 | 7 % of GpH7-B3/GpL16-k0 | B11
54 | 26 % of GpH7-B3/GpL16-k0 | B12
55 | 11 % of GpH7-B3/GpL16-k0 | B13
56 | 0 % of GpH7-B3/GpL16-k0 | B14

Target: T5, human FcγRIIIa(F) (human, UniProt P08637 17-208, limits assumed)
T5 construct: also called FcgRIIIaF; allotype F158
Experiment: SPR (Biacore)

T5 sequence (P08637 other isoform, or with tags, fused parts or gaps limits assumed): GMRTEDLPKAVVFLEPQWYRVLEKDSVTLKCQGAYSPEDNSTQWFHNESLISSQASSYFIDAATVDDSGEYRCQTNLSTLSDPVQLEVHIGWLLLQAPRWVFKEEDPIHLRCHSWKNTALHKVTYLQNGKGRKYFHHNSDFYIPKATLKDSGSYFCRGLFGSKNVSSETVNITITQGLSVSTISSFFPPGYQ

Row | relative binding activity | Binder
57 | 8 % of GpH7-B3/GpL16-k0 | B1
58 | 22 % of GpH7-B3/GpL16-k0 | B2
59 | 0 % of GpH7-B3/GpL16-k0 | B3
60 | 0 % of GpH7-B3/GpL16-k0 | B4
61 | 2 % of GpH7-B3/GpL16-k0 | B5
62 | 0 % of GpH7-B3/GpL16-k0 | B6
63 | 2 % of GpH7-B3/GpL16-k0 | B7
64 | 51 % of GpH7-B3/GpL16-k0 | B8
65 | 1 % of GpH7-B3/GpL16-k0 | B9
66 | 22 % of GpH7-B3/GpL16-k0 | B10
67 | 2 % of GpH7-B3/GpL16-k0 | B11
68 | 1 % of GpH7-B3/GpL16-k0 | B12
69 | 0 % of GpH7-B3/GpL16-k0 | B13
70 | -1 % of GpH7-B3/GpL16-k0 | B14
